Assay [1] deals with T1, His6-AviTag-MBP-TEV-POLE2 (human, UniProt P56282 1-527, biotin on the AviTag (BirA co-expressed, biotin in the medium)).
T1 construct: POLE2, residues 1-527; a TEV site lies between MBP and POLE2; also called His6-avi-MBP-tagged POLE2; avi-His6-MBP-POLE2; source: E. coli BL21(DE3), co-expressed with BirA, purified (HisTrap, MBPtrap, Q HP); not shown: His6, N-terminal, kept; AviTag, N-terminal, kept; MBP, N-terminal, kept
In words: native holdup (nHU) titration with dot blot; purified His6-avi-MBP-tagged POLE2 as bait on resin; extracts of HEK293T cells transfected with HA-tagged full length proteins; 4 °C, 2 h; anti-HA dot blot; apparent. Particulars: one partner purified.

The target of assay [2] is T1, His6-AviTag-MBP-TEV-POLE2. Description: fluorescence polarisation; direct; dilution series of MBP-POLE2 added to 50 nM fluoDONSON peptide; 20 mM Hepes pH 7.5, 150 mM NaCl, 0.5 mM TCEP, 0.01% Tween 20. Particulars: both partners purified.
Assay [3] addresses T1, His6-AviTag-MBP-TEV-POLE2. In words: fluorescence polarisation; competitive; dilution series of the non-fluorescent DONSON peptide added to 50 nM fluoDONSON and 3.85 μM POLE2 protein; same buffer as the direct experiment. The note with it: both partners purified. (In general: In fluorescence polarisation assays a small probe gives low polarisation when free and higher when bound to something large.)

The next assay concerns the target T2, HA-POLE2 (human, UniProt P56282 1-527).
T2 construct: POLE2, residues 1-527; also called HA-POLE2 wild type; source: HEK293T, transfected, in cell extract; not shown: HA, N-terminal, kept
Description: native holdup (nHU) titration with dot blot; DONSON_71-88-saturated streptavidin resin mixed with control resin at various proportions; extracts of HEK293T cells expressing HA-tagged POLE2 variants; 4 °C, 2 h; depletion quantified with an antibody against the HA tag; apparent. The note with it: one partner purified.

*: point of attachment. carboxyfluorescein = carboxyfluorescein on the N-terminus (no linker); Biotin = O=C1N[C@H]2[C@H](CS[C@H]2CCCCC(=O)*)N1; TTDS = Trioxatridecan-succinamic acid linker

T1 sequence (P56282 whole entry, the tested form may be a part): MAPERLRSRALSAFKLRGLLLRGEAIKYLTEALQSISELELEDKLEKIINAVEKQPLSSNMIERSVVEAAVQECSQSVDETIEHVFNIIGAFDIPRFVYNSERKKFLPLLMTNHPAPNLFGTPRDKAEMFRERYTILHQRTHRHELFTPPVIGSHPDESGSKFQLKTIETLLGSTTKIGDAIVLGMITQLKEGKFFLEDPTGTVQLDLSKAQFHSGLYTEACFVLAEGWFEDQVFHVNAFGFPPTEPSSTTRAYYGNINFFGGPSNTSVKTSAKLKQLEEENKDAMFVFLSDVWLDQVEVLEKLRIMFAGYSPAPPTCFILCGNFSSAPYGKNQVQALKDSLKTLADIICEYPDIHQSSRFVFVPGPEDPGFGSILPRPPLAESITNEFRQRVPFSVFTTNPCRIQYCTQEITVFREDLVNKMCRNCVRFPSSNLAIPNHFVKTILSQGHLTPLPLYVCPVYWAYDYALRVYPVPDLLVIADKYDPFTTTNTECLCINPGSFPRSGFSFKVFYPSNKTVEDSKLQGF
T2 sequence (P56282 whole entry, the tested form may be a part): as above

B1: HA-TTF2, full length, N-terminal NPF motif mutated to KAF (natural protein, human, UniProt Q9UNY4 1-1162, looked up)
chain: MEEVRCPEHGTFCFLKTGVRDGPNKGKSFYVCRADTCSFVRATDIPVSHCLLHEDFVVELQGLLLPQDKKEYRLFFRCIRSKAEGKRWCGSIPWQDPDSKEHSVSNKSQHASETFHHSSNWLRKAFKVLDKNQEPALWKQLIKGEGEEKKADKKQREKGDQLFDQKKEQKPEMMEKDLSSGLVPKKKQSVVQEKKQEEGAEIQCEAETGGTHKRDFSEIKSQQCQGNELTRPSASSQEKSSGKSQDVQRESEPLREKVTQLLPQNVHSHNSISKPQKGGPLNKEYTNWEAKETKAKDGPSIQATQKSLPQGHFQERPETHSVPAPGGPAAQAAPAAPGLSLGEGREAATSSDDEEEDDVVFVSSKPGSPLLFDSTLDLETKENLQFPDRSVQRKVSPASGVSKKVEPSDPVARRVYLTTQLKQKKSTLASVNIQALPDKGQKLIKQIQELEEVLSGLTLSPEQGTNEKSNSQVPQQSHFTKTTTGPPHLVPPQPLPRRGTQPVGSLELKSACQVTAGGSSQCYRGHTNQDHVHAVWKITSEAIGQLHRSLESCPGETVVAEDPAGLKVPLLLHQKQALAWLLWRESQKPQGGILADDMGLGKTLTMIALILTQKNQEKKEEKEKSTALTWLSKDDSCDFTSHGTLIICPASLIHHWKNEVEKRVNSNKLRVYLYHGPNRDSRARVLSTYDIVITTYSLVAKEIPTNKQEAEIPGANLNVEGTSTPLLRIAWARIILDEAHNVKNPRVQTSIAVCKLQACARWAVTGTPIQNNLLDMYSLLKFLRCSPFDEFNLWRSQVDNGSKKGGERLSILTKSLLLRRTKDQLDSTGRPLVILPQRKFQLHHLKLSEDEETVYNVFFARSRSALQSYLKRHESRGNQSGRSPNNPFSRVALEFGSEEPRHSEAADSPRSSTVHILSQLLRLRQCCCHLSLLKSALDPMELKGEGLVLSLEEQLSALTLSELRDSEPSSTVSLNGTFFKMELFEGMRESTKISSLLAELEAIQRNSASQKSVIVSQWTNMLKVVALHLKKHGLTYATIDGSVNPKQRMDLVEAFNHSRGPQVMLISLLAGGVGLNLTGGNHLFLLDMHWNPSLEDQACDRIYRVGQQKDVVIHRFVCEGTVEEKILQLQEKKKDLAKQVLSGSGESVTKLTLADLRVLFGI
notes: TTF2, residues 1-1162; only the N-terminal NPF motif mutated; also called TTF2 mutant; source: HEK293T, transfected, in cell extract; not shown: HA, N-terminal, kept
Turning to B1, in assay [1], the “fold weaker affinity than the wild type” value was about 4 fold.

B2: fluoDONSON peptide (residues 71-88) (peptide)
peptide: carboxyfluorescein-GPAAARRNPFARLDNRPR-NH2
notes: DONSON, residues 71-88; also called fluorescein-labeled DONSON_71-88 peptide; fluorescent NPF motif peptide; source: synthetic peptide, HPLC purified
Regarding B2, the Kd in assay [2] was 16 µM.

B3: HA-ERCC6L, full length, NPF motif mutated to KAF (natural protein, human, UniProt Q2NKX8 1-1250, looked up)
chain: MEASRRFPEAEALSPEQAAHYLRYVKEAKEATKNGDLEEAFKLFNLAKDIFPNEKVLSRIQKIQEALEELAEQGDDEFTDVCNSGLLLYRELHNQLFEHQKEGIAFLYSLYRDGRKGGILADDMGLGKTVQIIAFLSGMFDASLVNHVLLIMPTNLINTWVKEFIKWTPGMRVKTFHGPSKDERTRNLNRIQQRNGVIITTYQMLINNWQQLSSFRGQEFVWDYVILDEAHKIKTSSTKSAICARAIPASNRLLLTGTPIQNNLQELWSLFDFACQGSLLGTLKTFKMEYENPITRAREKDATPGEKALGFKISENLMAIIKPYFLRRTKEDVQKKKSSNPEARLNEKNPDVDAICEMPSLSRKNDLIIWIRLVPLQEEIYRKFVSLDHIKELLMETRSPLAELGVLKKLCDHPRLLSARACCLLNLGTFSAQDGNEGEDSPDVDHIDQVTDDTLMEESGKMIFLMDLLKRLRDEGHQTLVFSQSRQILNIIERLLKNRHFKTLRIDGTVTHLLEREKRINLFQQNKDYSVFLLTTQVGGVGLTLTAATRVVIFDPSWNPATDAQAVDRVYRIGQKENVVVYRLITCGTVEEKIYRRQVFKDSLIRQTTGEKKNPFRYFSKQELRELFTIEDLQNSVTQLQLQSLHAAQRKSDIKLDEHIAYLQSLGIAGISDHDLMYTCDLSVKEELDVVEESHYIQQRVQKAQFLVEFESQNKEFLMEQQRTRNEGAWLREPVFPSSTKKKCPKLNKPQPQPSPLLSTHHTQEEDISSKMASVVIDDLPKEGEKQDLSSIKVNVTTLQDGKGTGSADSIATLPKGFGSVEELCTNSSLGMEKSFATKNEAVQKETLQEGPKQEALQEDPLESFNYVLSKSTKADIGPNLDQLKDDEILRHCNPWPIISITNESQNAESNVSIIEIADDLSASHSALQDAQASEAKLEEEPSASSPQYACDFNLFLEDSADNRQNFSSQSLEHVEKENSLCGSAPNSRAGFVHSKTCLSWEFSEKDDEPEEVVVKAKIRSKARRIVSDGEDEDDSFKDTSSIKAFNTSLFQFSSVKQFDASTPKNDISPPGRFFSSQIPSSVNKSMNSRRSLASRRSLINMVLDHVEDMEERLDDSSEAKGPEDYPEEGVEESSGEASKYTEEDPSGETLSSENKSSWLMTSKPSALAQETSLGAPEPLSGEQLVGSPQDKAAEATNDYETLVKRGKELKECGKIQEALNCLVKALDIKSADPEVMLLTLSLYKQLNNN
notes: ERCC6L, residues 1-1250; also called mutated version of ERCC6L; source: HEK293T, transfected, in cell extract; not shown: HA, N-terminal, kept
Consider B3, for which the “fold weaker affinity than the wild type” value in assay [1] stood at 10 fold.

B4: NPF motif peptide of DONSON (residues 71-88) (peptide)
peptide: {Biotin-TTDS}-GPAAARRNPFARLDNRPR-NH2
notes: Protein downstream neighbor of Son (DONSON), residues 71-88; also called DONSON_71-88; DONSON NPF motif; source: synthetic peptide (ABI 443 A synthesizer, Fmoc), HPLC purified
Take B4: the values for the Kd (in assay [3]; with HA-POLE2) were 13 µM and 0.28 µM, respectively.

(Values after PMC12808100 (Nature Communications, 2025).)
